# Test results taken from US20200199214A1 (Hoffmann-La Roche, published 2020).
# T1: human VEGF121 (human, UniProt P15692-9 27-147)
# T1 construct: No tag is stated for these preparations; Kept apart from VEGF121-His; also called HuVEGF121
# T1 sequence (looked up): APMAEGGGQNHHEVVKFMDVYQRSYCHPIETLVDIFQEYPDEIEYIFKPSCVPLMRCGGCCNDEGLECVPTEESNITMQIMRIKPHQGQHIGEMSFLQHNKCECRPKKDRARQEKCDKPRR
# B1: bispecific anti-VEGF/anti-IL-1beta Fab fragment RO7200394 (Fab, V domains shown)
# VH: DEQLVESGGGLVKPGGSLRLSCAAEGMVFKWNDMSWVRQAPGKGLEWVGSISKKGDHKYLNTKFIGRFTISRDNEKDTLYLQMNSLRAEDTAVYYCAKDVGFFDIWGQGTLVTVSS
# VL: AIYMHQEPSSLSASVGDRVTITCHGSYWLSSLVAWYQQKPGKAPKLLIYDAKYKHLGVPSRFSGSKEDQEFTLTISSLQPEDFATYYCQQYRYHPYTFGHGTKVEIKR
# notes: same variable domains as 1HVL12.85; also called R07200394
# Experiments:
# [1] = target: T1, human VEGF121; experiment: SPR competition: Fab (from 200 nM, 1:2 dilutions) preincubated with 50 nM VEGF121, injected over immobilised hVEGFR2 (competitor); without IL-1beta
# Description: (§1) As running and dilution buffer, HBS-P+(10 mM HEPES, 150 mM NaCl pH 7.4, 0.05% Surfactant P20) was used.
# (§2) For assessing VEGF-receptor binding inhibition, a final concentration of 200 nM of R07200394 or 400 nM antibody 0032 was preincubated with 50 nM VEGF121. For assessing IL-1beta-receptor binding inhibition, a final concentration of 200 nM of R07200394 or 200 nM antibody 0032 was with preincubated with 50 nM IL-1beta. Samples were diluted (1:2) in the corresponding 50 nM VEGF121 or IL-1beta solution.
# (§3) The antibody/ligand mixtures were injected onto the VEGFR2 or IL-1R1 surface for 60 s at a flow rate of 5 μl/min. After a dissociation phase for 60 s, the VEGFR2 surface was regenerated by injecting 5 mM NaOH for 60 s, whereas the IL-1R1 surface was regenerated by injecting 10 mM Glycine pH 3.0 followed by 5 mM NaOH for 60 s each. Bulk refractive index differences were corrected by subtracting blank injections and by subtracting the response obtained from the blank control flow cell. For evaluation, the binding response 5 seconds after inject end was taken. The derived response in RU was transformed to a binding response relative to the initial signal corresponding to the ligand(s) without antibody. IC50 values were calculated using a 4 parameter logistic model (XLfit, ID Business Solutions Ltd.)
# [2] = target: T2, VEGF165 (UniProt P15692-4 27-191); experiment: competition ELISA: Fab preincubated with VEGF165, free VEGF165 bound to coated rhVEGFR-1-Fc detected; sheet title 'Competition ELISA VEGFR1-Fc, 8 pM VEGF165'
# T2 construct: also called VEGF165 (Humanzyme, HZ-1153)
# Description: (§4) 96-well-Plates (Maxisorp Nunc-Immoplates) were coated with 50 μL/well rhVEGFR-1-Fc (R&D #321-FL-050) at a final concentration of 1 μg/ml in 200 mM NaHC0₃, pH 9.4 for 1 hour at room temperature.
# (§5) Meanwhile, antibody Fab fragments of different concentrations were preincubated with VEGF for form an antibody Fab-VEGF premix as follows: A dilution series of antibody Fab fragment was prepared by adding 280 μl of a solution of antibody Fab fragments (409.6 nM antibody in PBST-1% BSA) into the wells of the first column of a round bottom 96-well PS plate. The individual wells of columns 2-12 of the same plate were filled with 140 μl PBST-1% BSA. Subsequently, 1:2 dilutions were performed by transferring 140 μl of the antibody solution into the next column, thorough mixing and proceed with transferring 140 μl of this diluted antibody solution to the next column. This is repeated until column 11. Excess of 140 μl were discarded so that all wells comprise 140 μl. Column 12 served as the control (blank). […] 50 μl of the dilution series of the respective antibody Fab fragment were added to the VEGF121, or VEGF165, respectively; mixed thoroughly and incubated for 1.5 hours at room temperature.
# (§6) The rhVEGFR-1-Fc coated plates were washed two times with PBST and blocked for 45 min with 200 μl of 2% MPBST. After washing off the MPBST solution twice with PBST, 50 μl of the antibody Fab-VEGF premix were added to the plate and incubated for 1.5 hours at room temperature. Subsequently, the plates were washed twice with PBST. Then, 50 μl of a solution comprising biotinylated anti-VEGF antibody (R&D, BAF293; 1:2000 dilution in PBST) and SA-HRP (KPL, 14-30-00; 1:2000 dilution in PBST) was added and incubated for 30 min at room temperature. After 6× washing with PBST, 50 μl of TMB substrate solution (two-component HRP substrate (KPL, 34021); used at room temperature) was added and incubated for 30 min at room temperature. 50 μl of 1N H₂SO₄ was added and absorbance was read at 450 nm.
# [3] = target: T1, human VEGF121; experiment: SPR competition: Fab preincubated with 50 nM VEGF121, injected over immobilised hVEGFR2 (competitor); in presence of IL-1beta
# Description: as §1, §2, §3
# [4] = target: T3, human IL-1 beta (PeproTech 200-01B) (human, UniProt P01584 117-269); experiment: SPR, Fab captured via anti-Fab antibody, human IL-1beta injected, 1:1 Langmuir fit
# T3 construct: As printed it covers only the N-terminal part of the precursor, so it was not used; also called huIL-1 beta; IL1β
# Description: An anti-Fab capturing antibody (GE Healthcare 28958325) was immobilized to a Series S Sensor Chip C1 (GE Healthcare 29104990) using standard amine coupling chemistry resulting in a surface density of approximately 500 resonance units (RU). The bispecific anti-VEGF/anti-IL-1beta Fab fragment was captured to the surface with resulting capture levels of approximately 20 RU. A dilution series ranging from 0.74 to 60 nM (1:3 dilution) of either human IL-1 beta (PeproTech 200-01B) or cynomolgus IL-1 beta (Sino Biological 90010-CNAE) was injected for 90 s, dissociation was monitored for at least 600 s at a flow rate of 30 μl/min. The surface was regenerated by two consecutive injections of 10 mM Glycine pH 2.1 for 60 s each. Bulk refractive index differences were corrected by subtracting blank injections and by subtracting the response obtained from the control flow cell without captured bispecific anti-VEGF/anti-IL-1beta Fab fragment. Curve fitting was performed using the 1:1 Langmuir binding model within the Biacore evaluation software.
# Binding kinetics to VEGF and IL-1beta for the candidate antibodies were assessed as described in Example 3 using the indicated bispecific anti-VEGF/anti-IL-1beta Fab fragments (amino acid sequence as illustrated in Table 3). For comparison, antigen binding kinetics of prior art anti-VEGF/anti-IL-1beta antibody 0032, a full length IgG antibody, as disclosed in WO2016/075034 are depicted.
# [5] = target: T1, human VEGF121; experiment: competition ELISA: Fab preincubated with VEGF121, free VEGF121 bound to coated rhVEGFR-1-Fc detected; sheet title 'Competition ELISA VEGFR1-Fc, 8 pM VEGF121'
# Description: as §4, §5, §6
binder,measurement,setting,value
B1,IC50,[1],44 nM
same,IC50 (read off the curve),[2],~0.09 nM
same,IC50,[3],39 nM
same,Kd,[4],0.021 nM
same,koff,[4],0.000102 s⁻¹
same,kon,[4],4.73e+06 M⁻¹ s⁻¹
same,t 1/2,[4],1.9 h
same,IC50 (read off the curve),[5],~0.04 nM
